Data from PMC3162038.

Substrate: N[C@H]1C[C@H](COP(=O)(O)O)[C@@H](O)[C@H](O)[C@H]1O
Assay: PK/LDH coupled colorimetric assay at A340, Hanes-Woolf plot
Format: biochemical, Streptomyces hygroscopicus
Settings: 300 μM GDP-valienol, 50 mM Tris-HCl pH 7.5, 5 mM MgCl2, apparent

B1: VldE (Streptomyces hygroscopicus subsp. limoneus) (protein)
chain: MTGSEIFLASKRAAITYDTDPATGEPRAWLAPGGTGNVVAEQAGVLNISWIASADSEDDRRASALNPDGVTMELHSGREILVRLIRHDPAVFRNVQNFMTANLMWAANNYGWDRWTQPSFGSDAREGWADFGRFTRDFADAILKSSAQSADPVYLVHDYQLVGVPALLREQRPDAPILLFVHIPWPSADYWRILPKEIRTGILHGMLPATTIGFFADRWCRNFLESVADLLPDARIDREAMTVEWRGHRTRLRTMPLGYSPLTLDGRNPQLPEGIEEWADGHRLVVHSGRTDPIKNAERAVRAFVLAARGGGLEKTRMLVRMNPNRLYVPANADYVHRVETAVAEANAELGSDTVRIDNDNDVNHTIACFRRADLLIFNSTVDGQNLSTFEAPLVNERDADVILSETCGAAEVLGEYCRSVNPFDLVEQAEAISAALAAGPRQRAEAAARRRDAARPWTLEAWVQAQLDGLAADHAARTATAERFDTAPAVSTRADL
For B1, the Km was 308.0 ± 34.5 µM.
